Legend:
[1] = Stability in human plasma (room temperature, freeze/thaw, frozen storage); type: in vitro ADME
Experimental: Assessment of sample stability on storage (storage stability) was carried according to table (8), Acceptance criterion was defined as a recovered concentration within ±15% of the nominal spiked concentration. All standards were used within its stability period.
Validation consisted of intra run precision and bias, inter-run precision and bias, dilution integrity, matrix related modification of ionisation, auto-injector carry over, stability in whole blood at room temperature and on ice, freeze thaw stability of plasma over 5 cycles, 24 h room temperature stability of plasma, […], recovery and extract stability at 10° C.

[2] = Extract stability at 10° C.; type: physicochemical; conditions: extracts stored at 10° C. for approximately 85 hours
Experimental: Validation consisted of intra run precision and bias, inter-run precision and bias, dilution integrity, matrix related modification of ionisation, auto-injector carry over, stability in whole blood at room temperature and on ice, freeze thaw stability of plasma over 5 cycles, 24 h room temperature stability of plasma, frozen stability in plasma at −20 and −80° C. for 73 days, recovery and extract stability at 10° C.

[3] = Pharmacokinetics study: IN-105 plasma levels by LC/MS/MS in euglycemic clamp study in patients with Type 1 diabetes; type: in vivo, human
Experimental: The method was considered validated successfully since it passed all the pre-determined criteria in the validation protocol. The validated method was subsequently used for measurement of IN-105 levels in a euglycemic clamp study carried out in patients with Type 1 diabetes. The method for the determination of IN-105 in human plasma has been validated successfully over the concentration range 0.200 ng/ml to 50.0 ng/mL.
Plasma concentration data for each patient and treatment was analysed by a non-compartmental method. The area under plasma level curve for AUC0-t was calculated by the trapezoidal rule. The primary pharmacokinetic parameters (mean±SD) were Cmax, AUClast, Tmax and PD parameters were Tmin, Cmin, AUClast. Ratios and 90% CIs of geometric means were calculated for PK and PD parameters from mixed effects model with fixed effects for sequence, period and treatment, and patients within sequence as a random effect for log transformed Cmax and AUC.
The average plasma concentration time profile of IN-105 obtained after administration of IN-105 tablets in volunteers is shown in FIGS. 13-14.

[4] = Stability of stock solution in acetic acid (2%) in methanol:water; type: physicochemical; conditions: acetic acid (2%) in methanol:water (30:70 v/v)
Experimental: Two separate stock solutions were prepared by dissolving 2 mg of IN-105 and dissolving in 1 mL of 2% acetic acid containing methanol:water in the ratio of 30:70 v/v. Thus, the stock solution of 2000 μg/mL was prepared.
One was named “calibration stock” and other was named “quality control stock”. The stock solution was stored at −20° C. for 40 days.
In one embodiment nitrogen isotope labelled insulin having purity 96.3% and 96.1% respectively, was used as analytical standard and internal standard for further analysis. Glargine (3.64 mg/mL) of 100% purity was used as co-administered standard in the analytical procedure. The stability studies to understand storage stability and solution stability were carried out.
In addition to the experiments described above, selectivity of the method in plasma (K2EDTA/K3EDTA) from different sources, effect of lipaemia and haemolysis, selectivity and modification of ionisation of insulin in the presence of Glargine and stability of solutions of insulin or insulin analogues investigated.

[5] = room temperature, up to 24 hours

Substance | frozen stability in plasma at −20° C. ([1]; 244 days storage at −20° C.) | frozen stability in plasma at −80° C. ([1]; 244 days storage at −80° C.) | freeze/thaw stability in plasma ([1]; after five freeze/thaw cycles) | stability in plasma stored at room temperature [1, 5] | extract stability [2] | mean plasma concentration as a function of time after dosing ([3]; 30 mg/kg dose, FIG. 15) | AUClast (AUCt) as function of dose: intercept ([3]; AUClast in ng · h/ml, linear regression against dose) [area units] | AUClast (AUCt) as function of dose: slope ([3]; AUClast in ng · h/ml, linear regression against dose, oral tablets, T1D patients) [area units/mg] | Cmax as function of dose: intercept ([3]; Cmax in ng/ml, linear regression against dose) [concentration units] | Cmax as function of dose: slope ([3]; Cmax in ng/ml, linear regression against dose, oral tablets, T1D patients) [concentration units/mg] | correlation of maximal plasma concentration and area under the PK curve with dose ([3]; p<0.05) | solution stability at room temperature [4, 5] | solution stability at −20° C. ([4]; −20° C., up to 40 days)
IN-105: rapid acting insulin analogue for oral delivery; human insulin sequence conjugated with short chain alkyl-polyethylene glycol at ε-amino group of lysine B29 | stable | stable | stable | stable | stable | well-defined peak concentration and subsequent clearance is evident | −243.525 | 26.427 | −2.421 | 0.431 | linearly correlated significantly |  | 
[^15N] IN-105: IN-105 labelled with stable isotope 15N by fermentation in labelled medium; used as internal standard |  |  |  |  |  |  |  |  |  |  |  | stable | stable

From patent US20190212347A1, “BIO-ANALYTICAL METHOD FOR INSULIN ANALOGUES” (BIOCON LIMITED, priority 2016, published 2019)
